Assay [1] concerns the target T1, Pyk2 FERM I308E variant (UniProt Q14289 39-366).
T1 construct: domain: FERM domain; Printed once as '1308E' (a misprint of I308E); also called Pyk2 FERM variant 1308E
As to the kind of experiment: capture sandwich ELISA with hybridoma supernatant. Background: ELISA stands for enzyme-linked immunosorbent assay.

Assay [2] concerns the target T2, HA-epitope tagged wild type FAK (UniProt Q05397 2-1052, limits assumed).
T2 construct: mature; also called full length FAK; tyrosine kinase FAK
As to the kind of experiment: Western blot of lysates of transfected SF767 cells.

Assay [3] addresses T3, 3x HA-tagged FAK FERM domain (FAK residues R35-P362) (UniProt Q05397 35-362).
T3 construct: range 35-362
T3 sequence (looked up): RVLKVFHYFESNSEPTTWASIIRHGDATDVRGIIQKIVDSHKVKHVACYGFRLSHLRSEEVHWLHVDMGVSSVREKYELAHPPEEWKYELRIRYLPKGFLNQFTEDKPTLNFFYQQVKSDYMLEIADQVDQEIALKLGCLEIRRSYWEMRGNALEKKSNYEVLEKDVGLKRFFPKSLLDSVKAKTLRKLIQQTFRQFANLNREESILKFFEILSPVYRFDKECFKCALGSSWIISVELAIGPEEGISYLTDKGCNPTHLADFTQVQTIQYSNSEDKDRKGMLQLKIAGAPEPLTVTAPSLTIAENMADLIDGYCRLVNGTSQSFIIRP
As to the kind of experiment: Western blot of lysates of transfected SF767 cells. On the technique in general: In western blotting, separated proteins are transferred to a membrane and probed.

Assay [4] addresses T4, Pyk2 FERM (FAKF3) (UniProt Q14289 39-260; Q05397 254-362).
T4 construct: range 39-260;range 254-362; A chimera made by splice overlap extension PCR; The range 39-260 of Pyk2 is derived from the printed limits of the FERM domain (R39-A366) and the F3 module (D261-A366); also called Pyk2 FERM domain containing the FAK FERM F3 domain
As to the kind of experiment: Western blot of lysates of transfected SF767 cells.

Assay [5] has as its target T5, FLAG tagged Pyk2 I308E (UniProt Q14289 1-1009, limits assumed).
T5 construct: mature; also called Pyk2 with substitution of I308
The experiment in a line: anti-FLAG immunoprecipitation and 12A10 immunoblot. From the text:
(§1) FIG. 2 (bottom panel) depicts a Western blot using anti-Pyk2 12A10 monoclonal antibody. SF767 cells were transfected with FLAG epitope tagged wild type (WT) Pyk2 or Pyk2 with the indicated amino acid substitution. Cells were lysed, Pyk2 was immunoprecipitated with anti-FLAG mAb, and immunoprecipitates immunoblotted with anti FLAG, anti-phosphotyrosine mAb pY20 or mAb 12A10. FIG. 2 (top) is a three dimensional model of the Pyk2 FERM with the locations of interacting residues, indicated by Arial font and non-interacting surfaces indicated by Times Roman font.
(§2) Immunoprecipitation of cleared lysates was performed as described elsewhere (Lipinski et al., Biochem. Biophys. Res. Commun., 349:939-947 (2006)). For immunoblotting, equal amounts of protein (10-20 μg) were electrophoresed on 8-16% gradient SDS-PAGE gels (Invitrogen, Carlsbad, Calif.) and transferred to nitrocellulose. Immunoblotting of transferred proteins was performed with the appropriate primary antibodies for 1 hour at room temperature and was visualized by enhanced chemiluminescence (Perkin Elmer Life Sciences, Boston, Mass.).

Assay [6] has as its target T6, FLAG tagged Pyk2 R306E (UniProt Q14289 1-1009, limits assumed).
T6 construct: mature; also called Pyk2 with substitution of R306
The experiment in a line: anti-FLAG immunoprecipitation and 12A10 immunoblot.
Source text: as §1, §2

Assay [7] addresses T7, FLAG tagged Pyk2 D346A (UniProt Q14289 1-1009, limits assumed).
T7 construct: mature; also called Pyk2 with substitution of D346
As to the kind of experiment: anti-FLAG immunoprecipitation and 12A10 immunoblot.
Source text: as §1, §2

Assay [8] deals with T8, FLAG tagged Pyk2 W104A (UniProt Q14289 1-1009, limits assumed).
T8 construct: mature; also called Pyk2 with substitution of W104
T8 sequence (Q14289 whole entry W104A): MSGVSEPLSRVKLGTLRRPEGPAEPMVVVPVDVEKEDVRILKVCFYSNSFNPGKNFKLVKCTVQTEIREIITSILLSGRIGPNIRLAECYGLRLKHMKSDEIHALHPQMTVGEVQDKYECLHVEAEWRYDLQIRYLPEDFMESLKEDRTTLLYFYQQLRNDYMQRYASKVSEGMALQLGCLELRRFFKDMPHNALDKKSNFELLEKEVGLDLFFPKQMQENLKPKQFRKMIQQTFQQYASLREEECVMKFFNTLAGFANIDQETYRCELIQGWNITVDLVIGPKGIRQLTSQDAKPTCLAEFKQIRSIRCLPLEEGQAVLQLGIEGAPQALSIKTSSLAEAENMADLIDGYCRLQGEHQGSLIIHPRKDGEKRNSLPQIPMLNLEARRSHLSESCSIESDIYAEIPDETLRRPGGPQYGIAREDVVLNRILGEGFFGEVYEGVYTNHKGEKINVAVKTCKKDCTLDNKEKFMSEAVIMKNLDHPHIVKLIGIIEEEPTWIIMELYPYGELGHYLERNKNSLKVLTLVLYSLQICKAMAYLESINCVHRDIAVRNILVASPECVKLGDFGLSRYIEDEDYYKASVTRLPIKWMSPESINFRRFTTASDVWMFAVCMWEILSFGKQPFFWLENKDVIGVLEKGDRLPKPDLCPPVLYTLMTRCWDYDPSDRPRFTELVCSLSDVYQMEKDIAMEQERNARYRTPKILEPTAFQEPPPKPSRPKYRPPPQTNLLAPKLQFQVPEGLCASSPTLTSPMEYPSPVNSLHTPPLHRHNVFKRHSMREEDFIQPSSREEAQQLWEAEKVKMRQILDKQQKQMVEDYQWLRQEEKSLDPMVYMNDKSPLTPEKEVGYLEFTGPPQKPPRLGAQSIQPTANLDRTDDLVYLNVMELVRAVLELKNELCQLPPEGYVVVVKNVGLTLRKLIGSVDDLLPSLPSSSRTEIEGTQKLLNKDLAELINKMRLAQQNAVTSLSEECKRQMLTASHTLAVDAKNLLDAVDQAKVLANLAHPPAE
The experiment in a line: anti-FLAG immunoprecipitation and 12A10 immunoblot.
Source text: as §1, §2

For assay [9], the target named is T9, FLAG tagged Pyk2 Y135C (UniProt Q14289 1-1009, limits assumed).
T9 construct: mature; also called Pyk2 with substitution of Y135
T9 sequence (Q14289 whole entry Y135C): as the sequence (Q14289 whole entry W104A) above, with A104W, Y135C counted along it
The experiment in a line: anti-FLAG immunoprecipitation and 12A10 immunoblot.
Source text: as §1, §2

T2 sequence (Q05397 2-1052 limits assumed): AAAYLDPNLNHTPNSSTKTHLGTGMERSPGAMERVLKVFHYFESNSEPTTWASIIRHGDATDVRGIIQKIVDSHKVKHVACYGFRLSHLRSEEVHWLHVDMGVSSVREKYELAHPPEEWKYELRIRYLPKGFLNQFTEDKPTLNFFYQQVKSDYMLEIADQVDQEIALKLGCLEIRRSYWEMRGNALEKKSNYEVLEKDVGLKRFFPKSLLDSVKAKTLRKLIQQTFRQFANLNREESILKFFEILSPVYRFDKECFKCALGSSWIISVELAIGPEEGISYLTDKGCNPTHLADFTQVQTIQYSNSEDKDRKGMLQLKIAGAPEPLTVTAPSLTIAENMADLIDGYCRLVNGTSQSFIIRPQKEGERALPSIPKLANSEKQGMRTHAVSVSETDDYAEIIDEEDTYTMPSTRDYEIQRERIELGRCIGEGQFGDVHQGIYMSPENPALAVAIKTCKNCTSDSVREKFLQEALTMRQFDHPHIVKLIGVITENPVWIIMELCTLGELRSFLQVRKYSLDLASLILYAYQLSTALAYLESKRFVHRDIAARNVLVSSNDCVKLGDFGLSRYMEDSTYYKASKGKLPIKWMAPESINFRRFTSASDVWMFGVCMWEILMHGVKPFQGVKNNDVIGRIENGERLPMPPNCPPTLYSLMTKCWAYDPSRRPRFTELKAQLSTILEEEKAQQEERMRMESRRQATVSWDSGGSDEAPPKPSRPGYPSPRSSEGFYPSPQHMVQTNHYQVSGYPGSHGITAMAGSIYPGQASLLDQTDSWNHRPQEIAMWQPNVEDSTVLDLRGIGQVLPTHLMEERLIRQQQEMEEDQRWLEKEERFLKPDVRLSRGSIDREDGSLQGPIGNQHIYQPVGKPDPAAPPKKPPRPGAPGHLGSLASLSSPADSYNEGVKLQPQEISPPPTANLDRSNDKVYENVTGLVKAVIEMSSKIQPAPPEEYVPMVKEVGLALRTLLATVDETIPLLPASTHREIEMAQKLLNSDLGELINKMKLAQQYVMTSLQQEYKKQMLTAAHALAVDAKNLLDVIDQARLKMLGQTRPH
T7 sequence (Q14289 whole entry D346A): as the sequence (Q14289 whole entry W104A) above, with A104W, D346A counted along it
T6 sequence (Q14289 whole entry R306E): as the sequence (Q14289 whole entry W104A) above, with A104W, R306E counted along it
T1 sequence (Q14289 39-366 I308E): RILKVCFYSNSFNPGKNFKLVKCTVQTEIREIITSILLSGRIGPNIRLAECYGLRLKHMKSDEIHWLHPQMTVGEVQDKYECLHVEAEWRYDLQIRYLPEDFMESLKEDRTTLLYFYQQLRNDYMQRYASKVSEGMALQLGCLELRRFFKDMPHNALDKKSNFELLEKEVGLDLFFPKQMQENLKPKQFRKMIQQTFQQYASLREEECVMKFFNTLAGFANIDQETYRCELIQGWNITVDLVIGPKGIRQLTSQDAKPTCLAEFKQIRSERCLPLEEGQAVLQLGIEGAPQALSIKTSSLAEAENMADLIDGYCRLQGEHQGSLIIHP
T5 sequence (Q14289 whole entry I308E): as the sequence (Q14289 whole entry W104A) above, with A104W, I308E counted along it

B1: mouse monoclonal antibody 12A10 (antibody, V domains shown)
VH: EVKLQESGPELKKPGETVKISCKASGYTFTDYSMHWVMQSPGKGLKWMGWINTETGEPRYVDDFKGRFAFSLETSASTAYLQIINLKNEDTATYFCARWDHGHGGFTYWGQGTLVTVSA
VL: DIVLTQTTASLAVSLGQRATMSCRATESVDSYGKSFMYWFQQRAGQPPKLLIYLASNLESVVPPRFSGSGSRTDFSLTIDPVEADDAATYYCQQNNEDPFTFGSGTKLEIK
notes: Mouse IgG1 from hybridoma 12A10, raised against the His-tagged Pyk2 F3 module (D261-A366); Used as hybridoma supernatant in the ELISA screen and as an antibody in the Western blots; also called mAb 12A10; anti-Pyk2 12A10 monoclonal antibody
As to B1, the binding result in assay [1], in [2], in assay [3], in assay [4], in [5] and in assay [6] was “no binding” in each case. The binding result in [7], in assay [8] and in [9] was “binds” each time.
